Results published in patent publication US20180008723A1 (UNIVERSITE DES SCIENCES ET TECHNOLOGIES DE LILLE LILLE 1, published 2018).
Each block holds one binder with its values, some of them ahead of it.

Tests used:
[1] = biological target: T1, endogenous MET receptor of human cells (HeLa, Capan-1) (human, UniProt P08581 25-1390); assay: pull-down of endogenous MET from HeLa and Capan-1 total cell lysates on streptavidin beads loaded with NB, total MET western blot
T1 construct: whole, on cells; On living HeLa cells in the signalling assays; from whole cell lysates of HeLa or Capan-1 cells in the capture experiment; also called tyrosine kinase receptor MET
Experimental: (§1) FIG. 4. K1B and NB MET binding properties. (a) Structure of NK1 dimer (center, PDB 1BHT) and spatial relative orientation of each N (left) and K1 (right) monomers within the dimer. Dashed arrows indicate distances between subdomain C-termini. (b) NB, K1B and MET-Fc binding assay. Increasing concentrations of NB or K1B were mixed with extracellular MET domain fused with human IgG1-Fc (MET-Fc), and incubated with streptavidin AlphaScreen donor beads and Protein A acceptor beads. Error bars correspond to standard error (+/−SD) of triplicates. (c) Endogenous MET capture. Streptavidin coated beads loaded with NB or K1B were incubated with HeLa or Capan-1 total cell lysates. Input, flow-through and elution fractions from NB or K1 loaded beads were analyzed by specific total MET western blot.
HeLa and Capan-1 cells were collected by scraping and then lysed on ice with a lysis buffer (20 mM Tris HCl, 50 mM NaCl, 5 mM EDTA and 1% Triton X-100). Lysates were clarified by centrifugation (20,000 g×15 min) and protein concentration was determined (BCA protein assay Kit, Pierce®, Thermo scientific, IL, USA). Streptavidin-Sepharose beads (GE Healthcare) were washed and equilibrated in PBS. Beads were loaded with 15 μg K1B or NB (100 μl beads in a 50:50 PBS:bead slurry) for 20 min at room temperature and immediately washed with PBS. […] Elution fractions were then analyzed by western blotting.

[2] = biological target: T2, MET-Fc (extracellular MET domain fused with human IgG1-Fc) (human, UniProt P08581 25-932); assay: AlphaScreen saturation assay: NB on streptavidin donor beads, MET-Fc on Protein A acceptor beads
T2 construct: extracellular domain; Recombinant chimera; also called recombinant extracellular MET-Fc chimera; hMET-Fc; not shown: human IgG1 Fc
Experimental: as §1
(§2) The binding of K1B/S complexes to MET was examined using AlphaScreen technology. K1B was loaded on streptavidin-coated donor beads and incubated with recombinant extracellular MET-Fc chimera loaded on Protein A-coated acceptor beads. If K1B/S donor beads interact with MET-Fc/Protein A acceptor beads, a chemical energy transfer is possible between the beads, leading to fluorescence emission upon laser excitation. […]

[3] = biological target: T2, MET-Fc (extracellular MET domain fused …); assay: AlphaScreen saturation assay: K1B on streptavidin-coated donor beads, MET-Fc on Protein A-coated acceptor beads (apparent, multivalent display); saturation assay; K1B on streptavidin-coated donor beads (apparent KD, avidity possible)
Experimental: as §1, §2

[4] = biological target: T2, MET-Fc (extracellular MET domain fused …); assay: AlphaScreen saturation assay: K1B on streptavidin donor beads, MET-Fc on Protein A acceptor beads
Experimental: as §1, §2

[5] = biological target: T2, MET-Fc (extracellular MET domain fused …); assay: AlphaScreen saturation assay; the reference is a literature value that is not given
Experimental: as §1, with “Dashed” for “FIG. 4. K1B and NB MET binding properties. (a) Structure of NK1 dimer (center, PDB 1BHT) and spatial relative orientation of each N (left) and K1 (right) monomers within the dimer. Dashed”
The binding of K1B/S complexes to MET was examined using AlphaScreen technology. K1B was loaded on streptavidin-coated donor beads and incubated with recombinant extracellular MET-Fc chimera loaded on Protein A-coated acceptor beads. If K1B/S donor beads interact with MET-Fc/Protein A acceptor beads, a chemical energy transfer is possible between the beads, leading to fluorescence emission upon laser excitation. […] Since the bead-based AlphaScreen assay can generate avidity and thus introduce a bias in the estimation of the apparent KD in saturation experiments, it was performed the reciprocal competition assay by adding increasing concentrations of preformed K1B/S complex (2:1 molar ratio) into the K1B/MET-Fc/AlphaScreen bead mixture (FIG. 6). […]

T2 sequence (P08581 25-932): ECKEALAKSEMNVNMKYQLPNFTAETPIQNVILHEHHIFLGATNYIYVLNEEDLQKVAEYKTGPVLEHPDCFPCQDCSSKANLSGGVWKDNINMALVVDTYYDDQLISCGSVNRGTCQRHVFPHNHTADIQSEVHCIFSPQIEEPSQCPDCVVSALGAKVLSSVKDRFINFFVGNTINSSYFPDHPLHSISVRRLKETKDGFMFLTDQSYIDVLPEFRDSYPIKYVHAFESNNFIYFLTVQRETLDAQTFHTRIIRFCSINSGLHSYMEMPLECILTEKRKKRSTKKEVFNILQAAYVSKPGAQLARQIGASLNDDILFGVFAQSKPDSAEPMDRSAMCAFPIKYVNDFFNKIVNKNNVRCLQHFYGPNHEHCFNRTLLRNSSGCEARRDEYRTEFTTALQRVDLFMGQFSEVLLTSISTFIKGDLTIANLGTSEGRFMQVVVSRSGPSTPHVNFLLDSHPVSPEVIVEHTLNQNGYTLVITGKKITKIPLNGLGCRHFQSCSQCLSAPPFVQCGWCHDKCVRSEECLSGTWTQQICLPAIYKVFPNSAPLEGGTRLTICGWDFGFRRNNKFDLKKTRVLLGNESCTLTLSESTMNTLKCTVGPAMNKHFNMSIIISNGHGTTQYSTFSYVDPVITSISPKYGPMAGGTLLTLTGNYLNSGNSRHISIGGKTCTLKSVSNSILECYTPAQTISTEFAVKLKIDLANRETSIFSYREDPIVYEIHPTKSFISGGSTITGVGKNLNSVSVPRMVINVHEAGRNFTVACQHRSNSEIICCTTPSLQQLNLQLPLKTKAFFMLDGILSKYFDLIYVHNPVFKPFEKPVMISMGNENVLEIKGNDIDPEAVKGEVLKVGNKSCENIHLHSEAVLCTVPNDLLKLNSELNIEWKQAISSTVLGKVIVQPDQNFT
T1 sequence (P08581 25-1390): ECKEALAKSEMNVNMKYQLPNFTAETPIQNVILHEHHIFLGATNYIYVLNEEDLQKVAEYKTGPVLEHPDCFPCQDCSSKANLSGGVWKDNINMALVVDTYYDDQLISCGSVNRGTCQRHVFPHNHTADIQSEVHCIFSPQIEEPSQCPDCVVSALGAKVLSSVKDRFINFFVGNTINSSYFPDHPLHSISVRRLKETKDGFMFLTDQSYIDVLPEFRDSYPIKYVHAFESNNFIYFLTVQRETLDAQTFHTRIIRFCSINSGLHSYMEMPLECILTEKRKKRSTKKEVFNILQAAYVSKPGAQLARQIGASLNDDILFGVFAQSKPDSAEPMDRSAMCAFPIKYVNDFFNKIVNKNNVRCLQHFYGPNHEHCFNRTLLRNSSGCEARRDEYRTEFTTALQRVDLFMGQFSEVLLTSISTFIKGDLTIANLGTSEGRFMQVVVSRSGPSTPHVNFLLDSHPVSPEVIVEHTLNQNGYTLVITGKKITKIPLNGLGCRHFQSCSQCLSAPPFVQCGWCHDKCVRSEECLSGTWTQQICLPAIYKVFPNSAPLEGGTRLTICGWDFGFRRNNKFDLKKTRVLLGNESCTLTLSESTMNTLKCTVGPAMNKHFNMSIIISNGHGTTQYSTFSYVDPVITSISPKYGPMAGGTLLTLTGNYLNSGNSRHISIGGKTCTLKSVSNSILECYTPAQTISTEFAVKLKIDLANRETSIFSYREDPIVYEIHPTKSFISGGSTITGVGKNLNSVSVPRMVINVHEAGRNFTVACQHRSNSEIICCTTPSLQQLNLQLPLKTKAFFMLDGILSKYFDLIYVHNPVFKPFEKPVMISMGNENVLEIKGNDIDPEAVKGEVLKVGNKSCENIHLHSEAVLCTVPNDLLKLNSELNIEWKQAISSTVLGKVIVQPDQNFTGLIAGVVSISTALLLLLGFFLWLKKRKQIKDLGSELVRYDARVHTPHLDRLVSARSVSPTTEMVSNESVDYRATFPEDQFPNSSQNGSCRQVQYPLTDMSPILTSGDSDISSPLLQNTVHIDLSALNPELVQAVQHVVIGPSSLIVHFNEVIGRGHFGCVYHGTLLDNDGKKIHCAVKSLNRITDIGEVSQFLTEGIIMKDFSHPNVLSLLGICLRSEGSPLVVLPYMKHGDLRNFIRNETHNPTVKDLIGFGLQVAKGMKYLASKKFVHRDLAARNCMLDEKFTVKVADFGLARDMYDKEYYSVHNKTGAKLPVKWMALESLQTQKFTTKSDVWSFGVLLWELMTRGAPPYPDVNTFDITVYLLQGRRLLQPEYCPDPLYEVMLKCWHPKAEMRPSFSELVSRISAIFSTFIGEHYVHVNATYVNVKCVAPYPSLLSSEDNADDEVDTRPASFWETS

binding result [1]: no binding | binding result [2]: no binding (tested: 300 nM)
B1: NB (ligand, human, UniProt P14210 31-127, looked up)
single chain: GQRKRRNTIHEFKKSAKTTLIKIDPALKIKTKKVNTADQCANRCTRNKGLPFTCKAFVFDKARKQCLWFPFNSMSSGVKKEFGHEFDLYENKDYIRN
modifications: biotinylated; the site is not stated for NB
notes: isolated N domain, chemically synthesised and biotinylated, not pre-mixed with soluble streptavidin; It is distinct from m9, the NB/S complex pre-mixed 2:1 with streptavidin; In both assays NB is presented on streptavidin-coated beads; also called biotinylated N domain of HGF/SF

Kd [3]: ~16 nM | EC50 (read off the curve) [4]: ~20 nM | fold lower apparent KD than the KD reported for monomeric K1 protein-MET interaction [5]: ~100 fold
B2: K1B (biotinylated K1 domain of HGF/SF, residues 125-209 with C-terminal GGK(biotin) extension) (ligand)
chain: IRNCIIGKGRSYKGTVSITKSGIKCQPWSSMIPHEHSFLPSSYRGKDLQENYCRNPRGEEGGPWCFTSNPEVRYEVCDIPQCSEVGGK
modifications: C-terminal lysine of the GGK extension modified on its side chain with a biotin group; three native disulfide bonds
notes: also called K1-Biot; biotinylated version of the K1 domain
